Consider 2 molecules from patent US8236527B2, “Recombinant production of authentic human proteins using human cell expression systems” (Humanzyme Limited, priority 2008, dated 2012).

Holding throughout (assay type): cell-based
One assay has as its system naïve T cell (Th0). Kind of assay: Differentiation of naive T cell (Th0) to Th17 cells, flow cytometry. To be noted: compared with human platelet derived native TGF-β1 (positive control). On the procedure:
(§1) FIG. 22: Efficient differentiation of Th17 cells with authentic cytokines expressed in human cells. Whole CD4+ T cells isolated from a healthy donor were stimulated with 2 μg/mL plate bound anti-CD3 and 1 μg/mL soluble anti-CD28 in the presence of Th17 polarizing cytokines, including a titration of IL-23. After 5 days, supernatants were harvested for measurement of IL-17 by ELISA. See (A)-(G). FIG. 22 (H) depicts flow cytometry analysis on Human Th17 Differentiation by Authentic human TGF-β1. See Example 17 below.
For orientation: In flow cytometry, cells or beads pass a laser one at a time.

For assay [1], the system named is whole CD4+ cells from a healthy donor. Kind of assay: Th17 polarizing cytokines: IL-17 secretion from human CD4+ cells (ELISA). To be noted: for induction of IL-17 secretion: compared with cytokines from insect cell or bacterial expression system, 5 days. An excerpt:
IL-17-producing CD4+ T cells (Th-17 cells) have been identified as a unique subset of Th cells that develop along a pathway that is distinct from the Th1, and Th2-cell differentiation pathways. This finding has provided exciting new insights into immunoregulation, host defense and the pathogenesis of autoimmune diseases. Recently it has been shown that IL1β, IL6 and IL23 are important in driving human Th17 differentiation. However, TGF-β1, which is important for the differentiation of murine Th17 cells, is reported to be not required, and even inhibits human Th17 differentiation (McGeachy & Cua (2008) Immunity 28:445, Chen & O'Shea (2008) Cytokines 41:71). In this study, whole […] cells isolated from a healthy donor were stimulated with 10 μg/mL plate bound anti-CD3 and 10 μg/ml soluble anti-CD28 in the presence of Th17 polarizing cytokines from the inventive human cell expression system and from an insect cell or bacterial expression system. After 5 days supernatants were harvested for measurement of IL-17 by ELISA.

The test system of a further assay is mouse splenocytes. Kind of assay: IL-23 activity: dose-dependent secretion of IL-17 from mouse splenocytes activated with PMA. Particulars: 10 ng/ml PMA.
The test system of the next assay is human CD4+ T cells. As to the kind of experiment: IL-23 activity: IL-17 secretion from human CD4+ T cells (ELISA). How it is done: (A) IL-23 activities determined by the dose-dependent secretion of IL-17 from mouse splenocytes activated with 10 ng/ml PMA. (B) IL-23 activities determined by the dose-dependent secretion of IL-17 from human CD4+ T cells stimulated with […] plate bound anti-CD3 and […] soluble anti-CD28 in the presence of Th17 polarizing cytokines.
as §1
IL-17-producing CD4+ T cells (Th17 cells) have been identified as a unique subset of T helper cells that develop along a pathway that is distinct from the Th1 and Th2-cell differentiation pathways. This finding has provided exciting new insights into immunoregulation, host defense and the pathogenesis of autoimmune diseases. Recently it has been shown that TGF-β1, […], IL-6 and IL-23 are important in driving human Th17 differentiation (Chen & O'Shea (2008) Cytokines 41:71). […] The activities were further assayed with human CD4+ cells which were isolated from a healthy donor and stimulated with 10 μg/ml plate bound anti-CD3 and 10 μg/ml soluble anti-CD28 in the presence of Th17 polarizing cytokines. After 5 days supernatants were harvested for measurement of IL-17 by ELISA.
In general terms: In an ELISA, binding on a coated surface is turned into a signal by an enzyme label.

Take “authentic human TGF-β1: TGF-β1 from engineered human 293 cells, disulfide-linked dimer of 25 kD”: the “differentiation of Th0 to Th17 cells (IL-17 and INF-γ producing cells)” value in the assay with naïve T cell (Th0) was “matched human platelet derived native TGF-β1”. Also, in assay [1], the “induction of IL-17 secretion” value was “effective in enhancing the effect”. For the same molecule, the Th17 cell polarization result in assay [1] (separate study, same condition) is reported as “can effectively induce Th17 cell polarization”.

B1: authentic human IL-23: IL-23 from engineered human HEK293 cells, disulfide-linked heterodimer of 55 kD (protein, UniProt Q9NPF7 20-189; P29460 23-328, looked up)
Interleukin-23 subunit alpha: RAVPGGSSPAWTQCQQLSQKLCTLAWSAHPLVGHMDLREEGDEETTNDVPHIQCGDGCDPQGLRDNSQFCLQRIHQGLIFYEKLLGSDIFTGEPSLLPDSPVGQLHASLLGLSQLLQPEGHHWETQQIPSLSPSQPWQRLLLRFKILRSLQAFVAVAARVFAHGAATLSP
Interleukin-12 subunit beta: IWELKKDVYVVELDWYPDAPGEMVVLTCDTPEEDGITWTLDQSSEVLGSGKTLTIQVKEFGDAGQYTCHKGGEVLSHSLLLLHKKEDGIWSTDILKDQKEPKNKTFLRCEAKNYSGRFTCWWLTTISTDLTFSVKSSRGSSDPQGVTCGAATLSAERVRGDNKEYEYSVECQEDSACPAAEESLPIEVMVDAVHKLKYENYTSSFFIRDIIKPDPPKNLQLKPLKNSRQVEVSWEYPDTWSTPHSYFSLTFCVQVQGKSKREKKDRVFTDKTSATVICRKNASISVRAQDRYYSSSWSEWASVPCS
On to B1, for which, in the assay with mouse splenocytes, the “activity relative to insect cell IL-23, IL-17 secretion from mouse splenocytes” value was “ten fold more active”. The “fold more potent than the cytokine produced from insect cells (FIG. 21 heading)” value with human CD4+ T cells (assay not specified in the heading) is 500 fold. Also, the “concentration at which maximum induction of IL-17 secretion was achieved” value in the assay on human CD4+ T cells (human CD4+ cells, 5 days) turned out to be 0.1 ng/mL. Also, the “fold more potent for inducing IL-17 secretion than insect cell IL-23” value in the assay on human CD4+ T cells (human CD4+ cells, anti-CD3 and anti-CD28, Th17 polarizing cytokines, 5 days) was 100 fold. In assay [1], the “induction of IL-17 secretion” value is reported as “significantly more effective”.
